Experimental data taken from PMC6242696 (Cell, 2018).
Changes are numbered by the printed parent chain.

T1: GDP/GTP carrier Ggc1 (containing the mutation C222S), C-terminal 6xHis-tag (Saccharomyces cerevisiae, C222S (stands in the printed letters))
T1 chain: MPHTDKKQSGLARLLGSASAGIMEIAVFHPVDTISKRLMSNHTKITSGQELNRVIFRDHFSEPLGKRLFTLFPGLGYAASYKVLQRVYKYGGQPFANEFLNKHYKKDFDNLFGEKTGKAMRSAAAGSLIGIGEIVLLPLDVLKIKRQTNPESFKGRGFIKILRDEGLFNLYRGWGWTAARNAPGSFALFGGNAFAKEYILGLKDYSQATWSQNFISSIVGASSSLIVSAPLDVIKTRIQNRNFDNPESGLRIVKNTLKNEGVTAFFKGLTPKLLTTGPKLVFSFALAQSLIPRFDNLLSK

T2: Tim10 M32K (subunit of the mutant complex) (Saccharomyces cerevisiae, UniProt P87108 2-93, M32K)
T2 sequence (looked up): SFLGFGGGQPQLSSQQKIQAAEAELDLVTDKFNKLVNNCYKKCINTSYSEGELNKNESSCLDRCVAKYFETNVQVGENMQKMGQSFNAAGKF

T3: Tim10 V29K (subunit of the mutant complex) (Saccharomyces cerevisiae, UniProt P87108 2-93, V29K)
T3 sequence (looked up): T2 sequence (looked up) with V28K, K31M

B1: TIM9⋅10 chaperone complex (hexamer of Tim9 and Tim10), wild type (complex, Saccharomyces cerevisiae)
chain 1: MDALNSKEQQEFQKVVEQKQMKDFMRLYSNLVERCFTDCVNDFTTSKLTNKEQTCIMKCSEKFLKHSERVGQRFQEQNAALGQGLGR
chain 2: GSFLGFGGGQPQLSSQQKIQAAEAELDLVTDMFNKLVNNCYKKCINTSYSEGELNKNESSCLDRCVAKYFETNVQVGENMQKMGQSFNAAGKF
B2: Tim9 (individual subunit) (natural protein, Saccharomyces cerevisiae)
chain: B1 chain 1

Assays:
[1] = target: Aac3(2TM), comprising transmembrane helices 2 and 3 (residues 50-180), N-terminal 6xHis-Tag; assay: AUC + other: diffusion-ordered NMR
[2] = target: T1, GDP/GTP carrier Ggc1 (containing the …); assay: AUC + other: diffusion-ordered NMR
[3] = target: T1, GDP/GTP carrier Ggc1 (containing the …); assay: SAXS with online Ni-NTA purification
[4] = target: T2, Tim10 M32K (subunit of the mutant …); assay: SEC
[5] = target: T3, Tim10 V29K (subunit of the mutant …); assay: SEC
SEC = target: the molecule itself; assay: SEC

Row | Binder | stoichiometry N [1] | stoichiometry N [2] | stoichiometry N [3] | binding result [4] | binding result [5] | stoichiometry N (SEC)
1 | B1 | 1 TIM9⋅10 hexamer per precursor chain | 2 TIM9⋅10 hexamers per precursor protein | 2 TIM9⋅10 hexamers per Ggc1 |  |  | 
2 | B2 |  |  |  | binds | binds | 2
